Source: PMC12637829 (Research Square, 2025)

Target: the molecule itself
Test: cryo-EM structure; amyloid fibrils polymerised from monomer at 4°C with seeds (5% mol/mol) in 5 mM KPi, 150 mM NaCl, pH 7.4, without agitation; third-generation (G3) fibrils

B1: Sup35NM S17R (domain or fragment, yeast, UniProt P05453 1-253, looked up)
chain: MSDSNQGNNQQNYQQYRQNGNQQQGNNRYQGYQAYNAQAQPAGGYYQNYQGYSGYQQGGYQQYNPDAGYQQQYNPQGGYQQYNPQGGYQQQFNPQGGRGNYKNFNYNNNLQGYQAGFQPQSQGMSLNDFQKQQKQAAPKPKKTLKLVSSSGIKLANATKKVGTKPAESDKKEEEKSAETKEPTKEPTKVEEPVKKEEKPVQTEEKTEEKSELPKVEDLKISESTHNTNNANVTSADALIKEQEEEVDDEVVND
notes: Sup35, yeast translation termination factor; NM domain = N-terminal prion domain (N or PrD) plus the polar M region (M124-D253), with S17R; In the fibril, many copies are stacked along the axis; also called S17R mutant; S17R4 (fibrils formed at 4°C); not shown: 7x histidine, C-terminal, kept
binding result: binds
